Measurements from publication doi:10.1101/215541, “DHX36 binding at G-rich sites in mRNA untranslated regions promotes translation”.

T1: FH-DHX36 (RHAU, G4R1) (human (expressed in HEK293 T-REx Flp-In …, UniProt Q9H2U1 1-1008))
T1 sequence: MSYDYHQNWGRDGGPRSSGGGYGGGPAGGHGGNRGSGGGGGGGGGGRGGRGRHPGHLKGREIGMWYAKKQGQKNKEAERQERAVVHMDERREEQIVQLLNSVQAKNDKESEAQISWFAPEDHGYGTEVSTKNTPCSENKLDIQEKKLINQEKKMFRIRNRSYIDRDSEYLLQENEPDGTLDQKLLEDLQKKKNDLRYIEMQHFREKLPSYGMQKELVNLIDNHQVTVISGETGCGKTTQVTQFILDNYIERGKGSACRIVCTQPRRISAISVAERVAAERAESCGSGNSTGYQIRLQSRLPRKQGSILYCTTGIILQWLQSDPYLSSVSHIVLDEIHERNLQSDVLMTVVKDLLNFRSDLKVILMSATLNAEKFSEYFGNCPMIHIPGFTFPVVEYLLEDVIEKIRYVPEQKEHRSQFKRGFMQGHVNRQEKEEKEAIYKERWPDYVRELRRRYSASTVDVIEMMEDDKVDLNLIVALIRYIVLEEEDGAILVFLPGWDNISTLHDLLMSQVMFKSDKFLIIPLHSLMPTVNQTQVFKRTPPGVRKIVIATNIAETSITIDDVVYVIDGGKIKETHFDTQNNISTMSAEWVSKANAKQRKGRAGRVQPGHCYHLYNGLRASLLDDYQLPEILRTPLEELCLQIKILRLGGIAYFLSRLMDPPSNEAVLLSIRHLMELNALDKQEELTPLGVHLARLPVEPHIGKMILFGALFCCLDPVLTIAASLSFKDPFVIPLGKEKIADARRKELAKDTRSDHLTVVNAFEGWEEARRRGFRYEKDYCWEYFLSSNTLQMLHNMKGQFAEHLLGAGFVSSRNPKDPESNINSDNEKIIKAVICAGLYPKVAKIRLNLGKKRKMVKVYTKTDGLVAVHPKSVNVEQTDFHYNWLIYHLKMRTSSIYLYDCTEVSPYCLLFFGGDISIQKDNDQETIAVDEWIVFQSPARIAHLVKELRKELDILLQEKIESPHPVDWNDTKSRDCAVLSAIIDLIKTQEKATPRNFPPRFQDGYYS

B1: mutated DHX36 RRE for MST (ssDNA)
DNA: AAAAAGCAGCAGGAGCAGCA
B2: DHX36 RRE for MST (G-rich PAR-CLIP motif) (structured_DNA)
DNA: AAAAAGGAGGAGGAGGAGGA

Target: T1, FH-DHX36 (RHAU, G4R1)
Assay: MST; 25 nM oligonucleotide, DHX36 up to 50 nM; MST: 1x MST buffer (composition not stated), 0.5% BSA, 5 mM DTT; 25 nM Cy5 oligo (folding buffer for CD oligos: 10 mM Tris pH 7.5, 100 mM KCl, 1 mM EDTA); temperature not stated
Conditions: protein: recombinant, tags: N-terminal FLAG-HA (pFRT-FlagHA vector), label: 5'-Cy5

Binder | binding result (no G4 signature (CD on the longer A10 version)) | binding result (parallel G4 (CD on the longer A10 version))
B1 | no binding | 
B2 |  | binds
